Experimental findings from patent publication US20060204957A1, “Mta1s, a steriod hormone receptor corepressor” (priority 2002, published 2006) are described below.

The target of the test is Estrogen Receptor α (ER) (UniProt P03372). The experiment in a line: cell-based or functional assay.
Sequence of Estrogen Receptor α (ER) (P03372 whole entry): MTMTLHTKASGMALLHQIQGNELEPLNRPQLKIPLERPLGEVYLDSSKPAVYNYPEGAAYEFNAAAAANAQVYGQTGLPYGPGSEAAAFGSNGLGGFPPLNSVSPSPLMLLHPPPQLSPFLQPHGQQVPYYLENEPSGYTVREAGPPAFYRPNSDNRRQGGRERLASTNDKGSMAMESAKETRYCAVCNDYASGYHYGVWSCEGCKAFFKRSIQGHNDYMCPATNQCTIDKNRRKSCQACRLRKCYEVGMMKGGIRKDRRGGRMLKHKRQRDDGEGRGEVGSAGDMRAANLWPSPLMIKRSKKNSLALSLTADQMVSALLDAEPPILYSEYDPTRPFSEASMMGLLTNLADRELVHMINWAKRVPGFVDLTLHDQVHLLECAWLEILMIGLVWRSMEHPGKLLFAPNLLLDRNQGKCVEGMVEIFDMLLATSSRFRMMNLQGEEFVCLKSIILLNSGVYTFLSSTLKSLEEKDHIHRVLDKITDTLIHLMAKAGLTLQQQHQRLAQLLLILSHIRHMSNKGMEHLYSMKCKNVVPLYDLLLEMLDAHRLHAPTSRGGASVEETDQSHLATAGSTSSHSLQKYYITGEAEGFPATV

Turning to MTA1s-del (from UniProt Q13330 1-397), the presence of ERα in the nucleus of estradiol stimulated MCF-7 cells is > 90%.
